In series [1] the test system is Saccharomyces cerevisiae. The series is described as follows: protein stability index of tFT-peptide fusion (C-terminal peptide) (PSI (0-1 scale)); higher = more stable (slower turnover). The protocol: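 MPS profiling in S. cerevisiae of the tFT-X12 degron library: putative degron peptides plus stable controls, 12 aa, fused to the C-terminus of a sfGFP-mCherry timer. Cells are FACS-sorted into 8 mCherry/sfGFP bins and deep-sequenced. PSI runs from 0 (unstable) to 1 (stable). Backgrounds are wild type, das1Δ and doa10Δ at 30 °C, and wild type, das1Δ, cdc34-1 and cdc53-1 at 37 °C; 2-3 technical replicates each.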

Series [2] deals with Saccharomyces cerevisiae. Described as above. To be noted: genetic background: wild type; temperature: 30 C.
The mark [3] stands for this setting: genetic background: cdc34-1, temperature: 37 C.
[4] abbreviates: genetic background: cdc53-1, temperature: 37 C.
The mark [5] stands for this setting: genetic background: das1 deletion, temperature: 30 C.
[6] abbreviates: genetic background: das1 deletion, temperature: 37 C.
[7] abbreviates: genetic background: doa10 deletion, temperature: 30 C.
[8] abbreviates: genetic background: wild type, temperature: 30 C.
Setting [9] is: genetic background: wild type, temperature: 37 C.

Protein stability index data for 15 sequences are collected here from the supplement of paper PMC10724198.

± gives the standard deviation of the averaged measurements.
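Also: PSI is a weighted mean of sequencing reads over stability bins, variants kept only with over 10 reads, mCherry proximal and sfGFP distal, peptide attached via GGGS linker.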

With VFCSVGVSLFFG, the protein stability index in series [1] (setting [3]) is 0.335 ± 0.014; in series [1] (setting [4]) it was 0.496 ± 0.027; in series [1] (setting [5]), 0.289 ± 0.04; in series [1] (setting [6]) it was 0.5138 ± 0.0017; in series [1] (setting [7]), 0.258 ± 0.015; in series [1] (setting [8]), 0.284 ± 0.023. Also, the protein stability index in series [1] (setting [9]) amounted to 0.5118 ± 0.0026; in series [2], 0.411 ± 0.021.
As to VFFLFAVCSVLV, the protein stability index in series [1] (setting [3]) is 0.0858 ± 0.0079; in series [1] (setting [4]), 0.18 ± 0.0095; in series [1] (setting [5]), 0.106 ± 0.029; in series [1] (setting [6]), 0.2738 ± 0.0011; in series [1] (setting [7]), 0.0641 ± 0.0032; in series [1] (setting [8]) it was 0.0857 ± 0.033. The figures for the protein stability index in series [1] (setting [9]) and in series [2] were 0.248 ± 0.04 and 0.152 ± 0.02, respectively.
On to VFFLRVHFWSFF, for which the protein stability index in series [1] (setting [3]) was 0.377 ± 0.01; in series [1] (setting [4]), 0.487 ± 0.011; in series [1] (setting [5]), 0.368 ± 0.029; in series [1] (setting [6]) it was 0.53367 ± 0.00033; in series [1] (setting [7]) it was 0.138 ± 0.015; in series [1] (setting [8]), 0.168 ± 0.0092. For the same sequence, the figures for the protein stability index in series [1] (setting [9]) and in series [2] were 0.246 ± 0.02 and 0.2826 ± 0.0026, respectively.
Take VFFLVHFHLPMF: the protein stability index in series [1] (setting [3]) was 0.531 ± 0.053; in series [1] (setting [4]), 0.57 ± 0.041; in series [1] (setting [5]), 0.414 ± 0.031; in series [1] (setting [6]) it was 0.561 ± 0.01; in series [1] (setting [7]) it was 0.394 ± 0.0077; in series [1] (setting [8]) it was 0.401 ± 0.019. Further, the results for the protein stability index in series [1] (setting [9]) and in series [2] were 0.536 ± 0.03 and 0.455 ± 0.05, respectively.
For VFGFLVFYVCVR, the protein stability index is 0.0903 ± 0.036 in series [1] (setting [3]); 0.146 ± 0.021 in series [1] (setting [4]); 0.153 ± 0.047 in series [1] (setting [5]); 0.282 ± 0.014 in series [1] (setting [6]); 0.135 ± 0.027 in series [1] (setting [7]); 0.151 ± 0.026 in series [1] (setting [8]). Further, the protein stability index in series [1] (setting [9]) is 0.248 ± 0.026; in series [2], 0.268 ± 0.0095.
With VFHMFGWCGGAR, the protein stability index amounted to 0.728 ± 0.015 in series [1] (setting [3]); 0.8 ± 0.0098 in series [1] (setting [4]); 0.673 ± 0.012 in series [1] (setting [5]); 0.77 ± 0.026 in series [1] (setting [6]); 0.678 ± 0.042 in series [1] (setting [7]); 0.673 ± 0.028 in series [1] (setting [8]). The protein stability index in series [1] (setting [9]) is 0.7518 ± 0.0011; in series [2], 0.764 ± 0.071.
VFLFSLCIRLSR: the protein stability index in series [1] (setting [3]) was determined as 0.122 ± 0.065; in series [1] (setting [4]) it was 0.214 ± 0.0052; in series [1] (setting [5]), 0.141 ± 0.031; in series [1] (setting [6]), 0.289 ± 0.013; in series [1] (setting [7]), 0.133 ± 0.013; in series [1] (setting [8]), 0.147 ± 0.018. Also, the protein stability index in series [1] (setting [9]) is 0.248 ± 0.011; in series [2], 0.204 ± 0.008.
For the sequence VFLVFSVWVVYR, the protein stability index amounted to 0.2 ± 0.0081 in series [1] (setting [3]); 0.304 ± 0.00039 in series [1] (setting [4]); 0.233 ± 0.024 in series [1] (setting [5]); 0.357 ± 0.018 in series [1] (setting [6]); 0.2068 ± 0.00094 in series [1] (setting [7]); 0.218 ± 0.026 in series [1] (setting [8]). Moreover, the protein stability index in series [1] (setting [9]) came out at 0.343 ± 0.053; in series [2] it was 0.318 ± 0.027.
For VFLVRTVTQISA, the protein stability index was determined as 0.289 ± 0.02 in series [1] (setting [3]); 0.371 ± 0.033 in series [1] (setting [4]); 0.291 ± 0.025 in series [1] (setting [5]); 0.445 ± 0.015 in series [1] (setting [6]); 0.219 ± 0.0079 in series [1] (setting [7]); 0.254 ± 0.028 in series [1] (setting [8]). Moreover, the figures for the protein stability index in series [1] (setting [9]) and in series [2] were 0.397 ± 0.016 and 0.304 ± 0.017, respectively.
Turning to VFRLFFLLVWLV, the protein stability index in series [1] (setting [3]) came out at 0.079 ± 0.016; in series [1] (setting [4]) it was 0.0744 ± 0.019; in series [1] (setting [5]) it was 0.184 ± 0.023; in series [1] (setting [6]) it was 0.25 ± 0.0081; in series [1] (setting [7]) it was 0.1663 ± 0.00045; in series [1] (setting [8]), 0.112 ± 0.026. In addition, the protein stability index in series [1] (setting [9]) worked out at 0.13 ± 0.021; in series [2], 0.123 ± 0.014.
For VFRLLALLWRFF, the protein stability index stood at 0.606 ± 0.01 in series [1] (setting [3]); 0.695 ± 0.018 in series [1] (setting [4]); 0.62 ± 0.031 in series [1] (setting [5]); 0.767 ± 0.029 in series [1] (setting [6]); 0.323 ± 0.037 in series [1] (setting [7]); 0.31 ± 0.022 in series [1] (setting [8]). The protein stability index came out at 0.42 ± 0.012 in series [1] (setting [9]) and 0.325 ± 0.056 in series [2].
With VFSLAFYLVLFF, the protein stability index in series [1] (setting [3]) was determined as 0.326 ± 0.063; in series [1] (setting [4]), 0.349 ± 0.0065; in series [1] (setting [5]), 0.346 ± 0.025; in series [1] (setting [6]), 0.46 ± 0.015; in series [1] (setting [7]) it was 0.415 ± 0.011; in series [1] (setting [8]), 0.319 ± 0.029. The protein stability index in series [1] (setting [9]) turned out to be 0.418 ± 0.037; in series [2], 0.343 ± 0.056.
Consider VFSRVLSVLLSA, for which the protein stability index in series [1] (setting [3]) came out at 0.493 ± 0.011; in series [1] (setting [4]) it was 0.514 ± 0.033; in series [1] (setting [5]), 0.405 ± 0.029; in series [1] (setting [6]), 0.5429 ± 0.0039; in series [1] (setting [7]), 0.2377 ± 0.0015; in series [1] (setting [8]), 0.282 ± 0.027. The protein stability index is 0.457 ± 0.024 in series [1] (setting [9]) and 0.386 ± 0.0071 in series [2].
VFVGWVLCVVGG: the protein stability index is 0.04576 ± 0.00018 in series [1] (setting [3]); 0.161 ± 0.0032 in series [1] (setting [4]); 0.143 ± 0.021 in series [1] (setting [5]); 0.2762 ± 0.00081 in series [1] (setting [6]); 0.0778 ± 0.03 in series [1] (setting [7]); 0.132 ± 0.027 in series [1] (setting [8]). The values for the protein stability index in series [1] (setting [9]) and in series [2] were 0.2377 ± 0.002 and 0.218 ± 0.045, respectively.
Take VFWLLVAVLRYW: the protein stability index in series [1] (setting [3]) was determined as 0.224 ± 0.018; in series [1] (setting [4]) it was 0.247 ± 0.0056; in series [1] (setting [5]) it was 0.243 ± 0.023; in series [1] (setting [6]) it was 0.354 ± 0.0044; in series [1] (setting [7]), 0.263 ± 0.011; in series [1] (setting [8]), 0.222 ± 0.016. The protein stability index in series [1] (setting [9]) was found to be 0.325 ± 0.013; in series [2], 0.307 ± 0.06.
